Target: T1, Activin A (endogenous, mouse, released after LPS) (mouse) (UniProt Q04998)
T1 sequence (looked up): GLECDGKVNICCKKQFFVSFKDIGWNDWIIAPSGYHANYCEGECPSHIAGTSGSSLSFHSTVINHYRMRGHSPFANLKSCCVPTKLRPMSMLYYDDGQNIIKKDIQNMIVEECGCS
Assay: cell-based or functional assay

Recombinant human follistatin-288 (from UniProt P19883 30-317)
IL-6 peak concentration in mice given 1 µg rhfollistatin-288 before LPS, against LPS alone: 2 fold | IL-6 release in mice given 0.5 µg follistatin before LPS (LPS alone ≈20000 pg/ml): 30000 pg/mL | IL-6 release in mice given 0.5 µg follistatin before LPS, against LPS alone: 50% | IL-6 release in mice given 1 µg follistatin before LPS (LPS alone ≈20000 pg/ml): 50000 pg/mL | IL-6 release in mice given 1 µg follistatin before LPS, against LPS alone: 250% | IL-6 release in mice given 2 µg follistatin before LPS (LPS alone ≈20000 pg/ml): 20000 pg/mL | TNFα release in plasma of mice given 1 µg rhfollistatin-288 30 min before LPS (% suppression): 50

— US20070248609A1
